Data from patent US20180038857A1.

Molecular target: hCXCR3 (human) (UniProt P49682)
Test: cell-based or functional assay

Chain of hCXCR3 (human) (P49682 whole entry): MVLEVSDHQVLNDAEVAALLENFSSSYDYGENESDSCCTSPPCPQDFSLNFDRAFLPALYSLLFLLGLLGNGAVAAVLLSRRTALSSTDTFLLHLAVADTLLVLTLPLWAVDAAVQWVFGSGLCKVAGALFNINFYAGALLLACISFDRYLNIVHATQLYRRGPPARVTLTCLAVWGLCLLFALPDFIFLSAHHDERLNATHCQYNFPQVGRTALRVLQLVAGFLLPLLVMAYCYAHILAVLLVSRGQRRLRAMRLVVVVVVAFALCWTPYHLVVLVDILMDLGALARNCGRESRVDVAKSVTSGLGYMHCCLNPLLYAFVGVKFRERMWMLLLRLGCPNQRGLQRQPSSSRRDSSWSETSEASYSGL

- EC50, agonist activity in an Aequorin assay: 0.7 nM
B1: recombinant native ITAC (ligand, UniProt O14625 22-94, looked up)
chain: FPMFKRGRCLCIGPGVKAVKVADIEKASIMYPSNNCDKIEVIITLKENKGQRCLNPKSKQARLIIKKVERKNF
